Data from the DeepSol protein solubility set.

Assay: soluble on expression in E. coli; label from the status in PepcDB or PDB records

| Sequence | soluble on expression in E. coli |
| --- | --- |
| MSLTTNRTRKAGADSEISDLLKTQSELHGRIAAMAETLGTRQTEMSQTLNQRLDGMSQRLGETLTEQTRSTHENLSRLQERLAVIDAAQGNIQDLAKDVVGLQAILSNKQTRGAFGQARMETLIADALPAGAFQLQPTLSNGYRPDCIIKMPNNAPALVIDAKFPLEAWNAIKADETPETKRAAVQQFRRDMEVHIRDVAEKYLIRGETQDTAFIFVPSESIFADIHQHFEYLVQRAHRARVVIVSPSLLMLSVQVIQSVLKDQRMREQAHLIQGEVALLMDDVRRLDDRTRKLQAHFGLAQKDVDMMLISSDKVLARGQKIEGLDFSPTEKEASHGEIEQTRRFAENRAGAAKLRVVDDEEGHHHHHH | soluble |
| MSLTTSAHKHPYKIVASDLDGTLLAPNHQLSEFSKQTLKQLHDKGFTFIFATGRHHIDVAGIREIAGIPAYMITSNGARVHDQNDQLMYSKNVPQDLVQAIIDVVKHDKQLFVHLYRNDEWMLNKEDEILRDFHEDSGFTYRVFDVNNAPTDGIAKIFFTQEDQDHEHLVQYETLLNQRFGDKLNVAFSTPWCLEVMCAGVSKGDALQAVAESLHLGLENCIAFGDGMNDVEMLSMAGKGLVMGTAHEKVFNALPDNEVIGSNADDAVAHYLHQHLFEGGSHHHHHH | soluble |
| MSLTVHATPEPAAHQGVALGSSFYAAMRILPRPQREAMFQVYSFCRFVDDIADSDRPREQRVAELQQWRDDIAALYRGAPPPRLADYQESLRTFGLKREDFEAIIDGMEMDVDADIRAPDEATLDLYCDRVASAVGRLSVRIFGLPEADGIELSHHLGRALQLTNILRDIDEDAGIGRLYLPSELLHKVGITATDPRVVAADSALPSVCAPLVERALAHFAAADKVMNRNPRRVVKAPRIMGKYYYSILQLLIARGFAAPRAPVKLGKASKIAILLQYAIVEGHHHHHH | soluble |
| MSLTVWKTLEKTNHSQSEILSQLIEESDAIVVGIGAGMSAADGFTYIGPRFEEAFPDFIAKYQLLDMLQASLYDFEDWEEYWAFQSRFVALNYLDQPVGQAYLDLKDILAKKEYHIITTNADNAFAVADYNLEKVFHIQGEYGLWQCSQHCHQQTYRNDQAIRQMIAQQKDMKIPSNLIPKCPKCDQPFEINKRNEEKGMVEDADFHAQRQRYENFLSQHQNDKVLYLEIGVGHTTPQFIKHPFWRFVSLNENSLFVTLNHKHYRIPQKIRSRSVQLTQHIAELIAEAKKEIIGEGHHHHHH | soluble |
| MSLTWFDLVTPKSVMFFKPFIEELKRRDREVLVTAREGEGYSEVVELLNLYKIPFFNRGGFGGAKLCDKLKASIHRQLELMEFIEQHSIKRLVCLCSVDANRVAFGLGIPIVNFYDIPLSDYKTDFRRALPQARLTLPLSNKAFRPFMVPEEIFFRFGLEHDQIFEYGFLDVVAWLRDFQPSREFYEKVLKDYGLDTSLPTIVVREEEYKASYVMKKYPILYEGLKVLKERLRANILVIPRYEPEAVAELLPFAKVLKEKIVIQHILAYCDLFIGGGGTLNSEACFFGTPTISTRSFVSHYDKFLMDLALMDKVDSIEELIIKAERIIGNRNGYAKQIFDRMEFDVGSMVDEILKEKEGAEGHHHHHH | soluble |
| MSLVIVAIGCTFAAIPAYRIFCEQTSFGGLTQVAKDFDKIANMKKCEDRLIRVQFNSDVPSSMRWEFKPQQHEIYVHPGETALAFYTARNPTDKPIIGISSYNLTPFQAAYYFNKIQCFCFEEQILNPGEQVDLPVFFYIDPDYVNDPALEYLDSILLSYTFFEAKSGLKLPDPFDPKNRPSIAPSPDKVPEATK | not soluble |
| MSLVIYMIGGSPCSGKSTIASLLARQYQLLHIKLDDLVDEMMSQASADSQPICLLRQDRNPEQIWMRNPKEMADEEWRFYEEIFPYVKSYLIKKDRPLLVEGAGLLPHLVKELEWPASSYLCLTPTADFQKKHYRQREWVSYVLEGTTNPEQAFENWMQRDILFAQMVRKEAMRLGYSSLMTDGSQSEKQTAEEIARLLKLYNINEIDIKGENEGHHHHHH | soluble |
| MSLVSYVEVIKNGETISSCFQPFQKNENYGTITSANEQITPVIFHNLIMDMVLPKVVPIKGNKVTKMSMNLIDGFDCFYSTDDHDPKTVYVCFTLVDMPKILPIRILSGLQEYESNATNELLSSHVGQILDSFHEELVEYRNQTLNSSGNGQSSNGNGQNTISDIGDATEDQIKDVIQIMNDNIDKFLERQERVSLLVDKTSQLNSSSNKFRRKAVNIKEIMWWQKVKNITLLTFTIILEGHHHHHH | soluble |
| MSLVTKEREQIYILDGDIPFLAQRARLEANFTMEAKAHIQLFHQYFFNLPPDNDYIKWTVGKAMYMADGTALKQKQALDENGFYSDIISSSAVCTIMCDSIQFDEHERKFTYYGTQLIKRRTKDLKRSMITTGYIESVPRTRNNPHGLLITNWRTLENKDLDYEGHHHHHH | soluble |
| MSLYELTEDFKLRKITKYELDGIDEREDLLVIPPSSKAGPCGNACLFCYLLQNPPEMIYKVPRHDTLNDPDLENRIRYARKHYDLWIRVTDTSGNIKFDENRIKSLYDAGLDEIQISVHTTKKDVRARLMRNRQAGKLIDLLPLVAKHFRTIADIILTPGFNVEDIGEIIEDLDSMGVHEVRLFPVGVTRYNKFGVRPLTREELSYVKGIALEKDKELAIKVVIPPIFLALLGEFTTGLEPFDIEPDFPTYIFTGELAYQEMKRLFPRVNVIMVKNEFFGGNIGSAGLLTGRDILREVEKLPEVDLGLIILPELMFYGDMTLDGWRRQELFSKILIEKGYIVETALEPTEIPRVIEKVTLEGHHHHHH | soluble |
| MSLYTYIDLFAGPGGLCTGFKNAGFKPLIAVEMSDNTVKTYARNHEAEVYSLQELLENKGRLEEILNINTDNTCLIHGDIRLVDNDIIVEILQKKFKTNSVDVVAGGPPCESFSLAGKRIDGDERDDLFKNMLRIASISNSKFIFFENVPGLLTKKSNNIKVFDVIVEEFDNYGYNLASTDKNIIKCLAADYGVPQNRERVFLIGINKMYGENPYIYPEKTHGEGRKFEYISVSDALRYLPELNSGEGADIQQITYNFEEDFRKGKISEAVYNYLKFIAGKEGYIPPHIKESIDDGLIEIHKAVKHREKMINRMSYIKQGEGMKKAAERLINEGKEDIVRAYFPNKLYAARNRRLKANEPSFTVTSHCLDEMVHPYNNRGLTPREAARLQSFPDWYVFEGEYVKFHSDPQQDKYEQCGDAIPVLLVKALAEQLKIALNIVSERTSINEGHHHHHH | not soluble |
| MSLYYVTEDDVDKNFDMKAAINAVREAFEEYGKGRAYSSTRVRTFSQDGVLNTMPAAMEKYHISGLKSYYATRNGAKFVVVLFDTAADELLAIIEANRLGQIRTGAVTAYATSILHKNVEIFAIIGSGFQAETQLEGMLKVANPTEIRVYSRNQEHARNFSERSSKKFGVSIRAVESAEAALIGADTITTITNSNVPIVYRKYLGDEYHINLAGSNYINRREAESAVLSDANIVVTEHLEQSLIESVEISEYVKLGGKPIELKDVAVDPTRYSKFHRTVFKSMGIGLEDIISGYAVLKNMGIIEGHHHHHH | soluble |
| MSMLPTFGFTQEQVACVCEVLQQGGNIERLGRFLWSLPACEHLHKNESVLKAKAVVAFHRGNFRELYKILESHQFSPHNHAKLQQLWLKAHYIEAEKLRGRPLGAVGKYRVRRKFPLPRSIWDGEETSYCFKEKSRSVLREWYAHNPYPSPREKRELTEATGLTTTQVSNWFKNRRQRDRAAEAKERENNENSNSNSHNPLNGSGKSVLGSSEDEKTPSGTPDHSSSSPALLLSPPPPGLPSLHSLGHPPGPSAVPVPVPGGGGADPLQHHHGLQDSILNPMSANLVDLGS | soluble |
| MSMLQRPGYPNLSVKLFDSYDAWSNNRFVELAATITTLTMRDSLYGRNEGMLQFYDSKNIHTKMDGNEIIQISVANANDINNVKTRIYGCKHFSVSVDSKGDNIIAIELGTIHSIENLKFGRPFFPDAGESIKEMLGVIYQDRTLLTPAINAINAYVPDIPWTSTFENYLSYVREVALAVGSDKFVFVWQDIMGVNMMDYDMMINQEPYPMIVGEPSLIGQFIQELKYPLAYDFVWLTKSNPHKRDPMKNATIYAHSFLDSSIPMITTGKGENSIVVSRSGAYSEMTYRNGYEEAIRLQTMAQYDGYAKCSTIGNFNLTPGVKIIFNDSKNQFKTEFYVDEVIHELSNNNSVTHLYMFTNATKLETIDPVKVKNEFKSDTTTEESSSSNKQ | soluble |
| MSMSSMSSPSSAVCSPDHFSPSDHLCYVQCNFCQTILAVNVPYTSLFKTVTVRCGCCTNLLSVNMRSYVLPASNQLQLQLGPHSYFNPQDILEELRDAPSNMNMMMMNQHPTMNDIPSFMDLHQQHEIPKAPPVNRPPEKRQRVPSAYNRFIKEEIQRIKAGNPDISHREAFSAAAKNWAHFPHIHFGLVPDNQPVKKTNMPQQEGEDNMVMKEGFYAPAAANVGVTPY | soluble |
